Laboratory results taken from publication PMC3839853 (FEBS Open Bio, 2013).

Target: the molecule itself
Assay: crystal structure

B1: Recombinant wild-type Phanerochaete chrysosporium pyranose 2-oxidase (PcP2O_(RECWT)), full-length residues 1-621 with N-terminal T7-epitope tag and C-terminal … (enzyme, UniProt Q6QWR1 10-621, looked up)
chain: ADEPYDVFIAGSGPIGATFAKLCVDANLRVCMVEIGAADSFTSKPMKGDPNAPRSVQFGPGQVPIPGYHKKNEIEYQKDIDRFVNVIKGALSTCSIPTSNNHIATLDPSVVSNSLDKPFISLGKNPAQNPFVNLGAEAVTRGVGGMSTHWTCATPEFFAPADFNAPHRERPKLSTDAAEDARIWKDLYAQAKEIIGTSTTEFDHSIRHNLVLRKYNDIFQKENVIREFSPLPLACHRLTDPDYVEWHATDRILEELFTDPVKRGRFTLLTNHRCTKLVFKHYRPGEENEVDYALVEDLLPHMQNPGNPASVKKIYARSYVVACGAVATAQVLANSHIPPDDVVIPFPGGEKGSGGGERDATIPTPLMPMLGKYITEQPMTFCQVVLDSSLMEVVRNPPWPGLDWWKEKVARHVEAFPNDPIPIPFRDPEPQVTIKFTEEHPWHVQIHRDAFSYGAVAENMDTRVIVDYRFFGYTEPQEANELVFQQHYRDAYDMPQPTFKFTMSQDDRARARRMMDDMCNIALKIGGYLPGSEPQFMTPGLALHLAGTTRCGLDTQKTVGNTHCKVHNFNNLYVGGNGVIETGFAANPTLTSICYAIRASNDIIAKFGRHRG
  stoichiometry N: 4
